Assay results taken from publication PMC7351599.

Biological target: TMIEdel80–100-HA (UniProt Q8K467)
Assay: co-IP

- percent reduction of co-IP against TMIE-HA: 80%
B1: MYC-TMC1 (natural protein)
chain: MLQIQVEEKEEDTEESSSEEEEDKLPRRESLRPKRKRTRDVINEDDPEPEPEDEETRKAREKERRRRLRRGAEEEEEIDEEELERLKALLDENRQMIATVKCKPWKMEKKIEVLKEAKKFVSENEGALGKGKGKKWFAFKMMMAKKWAKFLRDFENFKAACVPWENKIKAIESQFGSSVASYFLFLRWMYGVNMVLFVLTFSLIMLPEYLWGLPYGSLPRKTVPRAEEASAANFGVLYDFNGLAQYSVLFYGYYDNKRTIGWLNFRLPLSYFLVGIMCIGYSFLVVLKAMTKNIGDDGGGDDNTFNFSWKVFCSWDYLIGNPETADNKFNSITMNFKEAIIEERAAQVEENIHLIRFLRFLANFFVFLTLGASGYLIFWAVKRSQEFAQQDPDTLGWWEKNEMNMVMSLLGMFCPTLFDLFAELEDYHPLIALKWLLGRIFALLLGNLYVFILALMDEINNKIEEEKLVKANITLWEANMIKAYNESLSGLSGNTTGAPFFVHPADVPRGPCWETMVGQEFVRLTVSDVLTTYVTILIGDFLRACFVRFCNYCWCWDLEYGYPSYTEFDISGNVLALIFNQGMIWMGSFFAPSLPGINILRLHTSMYFQCWAVMCCNVPEARVFKASRSNNFYLGMLLLILFLSTMPVLYMIVSLPPSFDCGPFSGKNRMFEVIGETLEHDFPSWMAKILRQLSNPGLVIAVILVMVLTIYYLNATAKGQKAANLDLKKKMKQQALENKMRNKKMAAARAAAAAGGQ
